Measurements published in a protein production outcome set (Wang et al. 2014).

Experiment: label from the status in PepcDB records

| Sequence | protein production |
| --- | --- |
| MDLLERLGLGGRRVLILHHDDLGLTHAQNGAYQALGLPTGSVMVPGAWASGVKGEDLGVHLVLTSEWPAPRMRPLTEGESLRDEAGYFPESLEALWRKARAEEVERELKAQIQAAAKLFSPTHLDAHQGAVLRPDLAEVYLRLAEAYRLVPLVPESLEGLGVPPPFLPELERLLYETPFPQVRFLDPYGLPPEERLGFYLDLAHLPPGLYYLVHHSALPTPEGRALPDWPTREADYFALSHPEVRRVLAEFHPLTWRAVREALF | not failed |
| MLIKLRKQKQDENISFFSHFFAVFTGIFFVMTVIIIQVMHFGIYSSVDNSLKIATENVNDYVNMTLSHNNPITEAENGDASFKVKSNGQMAANTDTILYDKKHNVINNVNAFSSLYHIRPKLKDIGDIVEQEAKNIYGQTEKYRTVTVKVNNDFYPQIKFATIVINTTQLEEANTRYVTIIISVMIVFWLISVIASVYLAKWSQKPILENYEKQKSFVENASHELRTPLAVLQNRLESLFRKPEATILDSSESIASSLEEVRNMRMLTANLLNLARRDDGIKPEITEIQPRFFDDTFKNYEMIARENGKKLHIINKVNRQIKTDKTLLKQLMTILFDNAVKYTDNDGEIWLDVKTTDRSLIFSVADNGQGISDEDKKKIFDRFYRVDKARTRQKGGFGLGLSLAKQITDSLKGSIIVKDKKPQGVMFEARLLANK | failed |
| KMLMPIEFELVESAPLFHELLHLRDAVGLPSIGVDMADGHPLQPLYWVSIHLTAKQDKNTATIVATACVYGDNANHFAIEDFIVLPEYRHIGLGKIILERVMAFVDDRATLGTYVSINTHGEQEKLCTDYGFAHSH | failed |
| MCRSGSRCCPPIKLRVACVVAASILTARAGTYAIAACYVAALRVMDQRIAMSLQVLGAGLGRTGTLSLKFALEHLGFGPCYHATEVAANMRTALPLWNAAERGAADWSAIFAGYRSSTDHPGCYYWRQLIEVYPQAKVVLTVRDPDSWFESVTQTILMPGRKSTFVGPEGETFSTFLKQQMGGRSQDRAFMVDYFNRWNQAVIDTVPADRLLVFSARQGWAPLCSFLGVPVPHKPYPHLHARPRLRWFTRGLRLPDDVAARERHVREYLEYLREDLFG | failed |
| MDKQAILDNIHQTWQEEANAISRLPEVTSEEALVKTVEKIAECTGKIVVAGCGTSGVAAKKLVHSFNCIERPAVFLTPSDAVHGTLGVLQKEDILILISKGGNTGELLNLIPACKTKGSTLIGVTENPDSVIAKEADIFFPVSVSKEPDPFNMLATASTMAVIASFDAVIVCLMTYMNYTKEQFSVIHPGGAVGNKLLNK | not failed |
| MTVPEEAQTLIGKHYRAPDHFLVGREKIREFAVAVKDDHPTHYSEPDAAAAGYPALVAPLTFLAIAGRRVQLEIFTKFNIPINIARVFHRDQKFRFHRPILANDKLYFDTYLDSVIESHGTVLAEIRSEVTDAEGKPVVTSVVTMLGEAAHHEADADATVAA | failed |
| MATLLGFSQTKFHHCGVWISTPPCSSSSTVVSMVGLNRTDSKKLRSDFLGQIGYEDRRQVRHSYCRSSLAVKMSWDGPLASVKLIIQGKNLELSEPIKQHVEEKVGKSVQKHSHLVREVDVRLSVRGGEFGKGPRIRRCEVTLFTKKHGVVRAEEDAETVYACIDLVSTIIQRKLRKIKEKDSDHGRHMKGFNRLKVREPVIEPVVEDVEDSTDSSVGEEEEEDDLIKEIVRTKTFEMPPLTVAEAVEQLELVSHDFYGFQNEETGEINIVYKRKEGGYGLIIPKKDGKAEKVEPLPTEQLNEHSFAE | failed |
| MIIHTLHRYILRNLLVGLAVGSVALIVLIWLINSLKFLDWFVNKGLSVATFLRLTLLLMPGFLTVFIPIALFAVVLFTYNRLAADRELIVMRAAGMGPWQLARPALALCAVLTGVGYWLTLSVVPAMEGAFEAIKYEVRGEVSSLVIKEGQFNQMKDGLIVYAGERAKDGRLIDLMIHDTTGKTSDLTVMAESGALVREGEGARILLINGNRQERNRQTGKVNFLYFDSYAVDLGGKAASTEMRFREERERPLSELISLKAGDRIDPDYPFTYEERHIRRMRMEAHLRLLRPLAHIGFLLIGLAAVLTGEFDRRGGNKRVILAVALVVLFQAGSLGAATVAKKSLDGLLLLDLMTLLPILVGWIWLVWPSERWGRRRLAPRRGRTAAPALGGGAGR | failed |
| MKSIVIYESVHHGNTEKVAKAMVEELNAECIRAQDLNLEKLKDYDLIGFGSGIFYNKFHKNILKLVGNIGKVNGKKAVVFSTSGQGRESSNKSLRKQLEEKGFKVIGSFACKGFDTFGPLKLLGGIGKGRPDQKDIEEAKKFVLGLEKNLLEHHHHHH | failed |
| MEVRGYKTEVALGKSSNSLLAGGLERRWQRLSGGCLGLLLMLPAVAAAAVYVPNAGQAMRDIQATQPALPEQPAPELDLPAKPPSAPAQAPDTSGIRLQVNDFVIVGNQVFSNETLQALLADLKGQELDLNQLRAAAERLTTYYQNQGYMLARAFLPAQDIEDGVVRIEVMEGRYGRIQVNNQSRALNSVITGPLSSLHSDTAVRSEDLERSLLLLSDLPGVRVKGTLSAGEQRGTTDLLVNAQPGPWASGTLEADNFGGYYTGEYRLGGSLNLNNPLRLGDQFNLRLLGSDEDQRYYRAAYKLPLGPWSTSVGVAYSRMNYELSRDFEVLEAHGQASIGSVFITQPLIRSRTFDLSAQLQYEDKRLRDDIDLFEVSSQKHVELWSLSLNGNSQDSLLGGGQNFFYLTYGSGRLSIDDPMDQWRDHFTAGTNGGFQKLNLNAARLQYLSPRFQLYGQFNGQWSSTNLDSSEKFGIGGPFDVRAYPQGTSSGDQGWQASLELRFLLAPRWQLKAFVDHGAVQVNKSPWIHDENRRQLSGAGVGASWSGPSQQISVTSAWALDNNQEGSGPERTPRIWASATQYF | failed |
| NDPDADRFAVAVRKDDGEYQMLTGDQVGVLFGHYLLSHASADQRLVGTTIVSSSLLSKIANGFGVESYTTLTGFKWLMNVGIAQSQPDNQFLFAYEEALGYTVGNMVWDKDGLSALVAFAQLTAELAAKGQTIWDRLEQIYREQGFHLN | failed |
| MSSALLRVAYAYDRLRAHPPEVAGQIATAMASAVHPKGEEPVFLELGVGTGRIALPLIARGYRYIALDADAAMLEVFRQKIAGVDRKVQVVQADARAIPLPDESVHGVIVVHLWHLVPDWPKVLAEAIRVLKPGGALLEGWDQAEESPEWTLQERWRAFAAEEGFPVERGLHAKRLKEVEEALRCLGLKPRTREVARWREERTPREALEALSERLYSFTQGLPEPVHARVMERLWAWAEAELGDLDRPFPVEKRFLLRVSRLG | failed |
| MMELIVAQAAASAAELPFLLLQAAAVVGMVSMLMLLQRHIAFDDVRYKIYYGVVFGATGFLLTLLVSEFIQLPSKPYIRSDLLFLAGVVGSWQGGLISLALISAGRFLFGGPALFGAAFLDMSVISAFGIAIYGWMRRRRLTELGMREIAGVFAIRIFAALFAICLTYGLGMVGQDVFLSNVGRRIVGATVGLPMIACLFLLLRSEARAREAVKKREVAARTDSLTGLPNRRALKDHIEMTTRQAPAVPHALLLIEIVNIADVAAYQGDDWADLFWPKLAREICDGENGLLSKFNDPRSFMFGDATLAVVIEGVSLEKSESAGLVLHLHEGLIAFFRSAEAGPVPHLKIGAANLEMVSHQNVASFLRHLSLALRRSENPVQIFPFSFAEKAARDEGVRQMLVRWIKNGKPPIFYQPKFEIHNRRMIGAEALLRAIDTHGQALSPYYVLEIAERHRLLVEFEWSTIEAVVRDLAELPGLDPDFHLAVNISASSFATACFADRVVALLQEMTVPAHRLSIEVTEMSRMPTTDSVQQNFDTLIAAGVRLALDDFGTGYAALTLLARFPFEEVKIDQWMTSRLDQARFRDAVVLAFESAERYGAKLVTEGIETEEQCRILMQMGIRFGQGYLYSPAVPLDRLLPRRAYA | failed |
| MSPPRDLPTLGRNTIPIPEFEMTRRNSKPGVRLLSVLVALGMAAPALAQAVTEPVTQPAIYPTPVSITLDGATIALGRSVVLVVAPGADKATVALVRSILSSAGVTKMATATRLPATLDRPHIVLGTGDAAVVRDALARSKARQDTHKEGYTLASVALDGGSLITLAGHDDDGLFHAAQTLRQLVERPAIPTLTIHDYPAMPIRGTIEGFYGAPWSMSDRSKHIDFLARTKANTFIYSPKDDPYARDRWRAPYPKATLKALGQLAATAKRNHVDFVYAISPGPTVCFSDPADAKALLRKFDAFRALGVRSFYVALDDIEYTKWNCERDKTAFGESGAQAAGIAQSHLLNLVQADLVARHDATSELIMVPTEYYDAKESPYKEALRKHLDPKIVVQWTGTDVVPPAISIPDARAATKAFGRKTLLWDNYPVNDFETSAGRLLMAPYARREAGLSAELSGIVSNPMNQEVPSRVAVMGLTAFAWNDKDYDAQRTWHAAARDLAGGDARVTAALLIFFDTQHLAPTFGSQPWQEQAPRLKAVLDHVREAIALGDAAARTQAIAELARTADEMAAAPQIIRDSVADKGFAKQSRPWLEAMEVWGGALQKTAAGLDAANRGDTQAPALFAEAAAHAAVAAVVPSIPGATRFDGPVKIADGVLDRFIAQAPRLIAYRVPAVADSAAAK | failed |
| MPKDNEEPLVKIPEFDERKFLFDEKERAKSIVIIFIIGAIVGSISGYFQLIGYWYLSLILILVVLLFSEYILKGLGVQVSKKTSHRILLVGEFLLTWLVFWILVLNPPLNHVSGPEIANLQMYSNNVWTSIVEKNGVYNIPFGSATSGTVSLRVYMFAYSGVVSYKVMAYQSSYAPAVIPSHLNDNYLYFNLTDVHYGSTYYVQVYGSTTVNGSNLTSEVSYTLYAE | failed |
| MMMHPMNKTNKRDKMEKRNNPSALNIFMSFLKLGMVAFGGPTAIAYVREMVVDEKKWMDEKSFNNGVALAQIIPGASVMQVAAYVGFYLRGIVGAFAAFMAYALPAFLIMLFLTIIYMHVKSLPKTVSIFEALRIIVVSLAANGTLNFSKKNIRTIGDVFLLLISALLFILKFSPFIVIFVSIFIGFLMYRRDITKLSLKIDIPREKLRIYKYVAYLLFGVFLFNLILYMIDSKLFLLSTLMMKVDVFAFGGGYGSVPFMLHEVVDKYNLMDAKTFMDGIALGQITPGPIVITATFVGYIVGGFIGSIISTISVFTPSFIILLSSIPIFDSLKHNTIFKNILHMILVSFVGLLVAVTIRFALLVDWSIQALIIFIVSFLLLYKKYNMLLVVLLSLVLGYLIL | failed |
| MNQHTLLPKKTERLQYFGSVSPIKGEKPVEKEKMKDLQNIRKDYFFDIQHVGVANVSHPVTITSAMMPAEQTTAANFTMTCNLPRNQKGINMSRLTELLQVYHQNGWILSFSSLQQFTKELAENMDTSSATVEVRFPWFFERKSPKLEKAGLMHADIFMSVTYRKDQPFKQRAGISAKVTTLCPCSKEISEYSAHNQRGTVKHLGRIFTRAASLPSDVKADLPHAAESNASARLHPVLKRPDEKAVTETAYENPRFVEDLARLIAADLFELEWVSAFEIECRNEESIHLHRCLCEVCFSKEVDKI | failed |
| MSLHASAIESIETIIVDLPTIRPHKLAMHTMQNQTLVLIRLRCADGIEGLGESTTIGGLAYGNESPDSIKTNIDRFVAPLLIGQDASNINAAMLRLEQSIRGNTFAKSGIESALLDAQGKRLGLPVSELLGGRVRDALPVAWTLASGDTAKDIAEAQKMLDLRRHRIFKLKIGAGEVDRDLAHVIAIKKALGDSASVRVDVNQAWDEAVALRACRILGGNGIDLIEQPISRNNRAGMVRLNASSPAPIMADESIECVEDAFNLAREGAASVFALKIAKNGGPRATLRTAAIAEAAGIGLYGGTMLEGGIGTLASAHAFLTLNKLSWDTELFGPLLLTEDILAEPPVYRDFHLHVSKAPGLGLSLDEERLAFFRRDKTTPVLHHTEGHHHHHH | not failed |
| MSSSTDTAMAAAEPIWLQHLAEQNIADFIPHRAPMILIDKIISHQQDALETEVLITPQSAYFDEHRQAVPNYVGIEYMAQSIAALAGVEAKLRHDKIRVGFLLGSRKLALHTAQYELNRRYRTQVKRLYQEESGLAVFDCQIYLLPEAQAQQTPLLVAEANVNVFQPQDTQAYIASSQQA | failed |
